From patent publication US20100092982A1 (University of California, published 2010)

B3: GST-CARM1 (enzyme)
chain: AAAATAVGPGAGSAGVAGPGGAGPCATVSVFPGARLLTIGDANGEIQRHAEQQALRLEVRAGPDAAGIALYSHEDVCVFKCSVSRETECSRVGRQSFIITLGCNSVLIQFATPHDFCSFYNILKTCRGHTLERSVFSERTEESSAVQYFQFYGYLSQQQNMMQDYVRTGTYQRAILQNHTDFKDKIVLDVGCGSGILSFFAAQAGARKIYAVEASTMAQHAEVLVKSNNLTDRIVVIPGKVEEVSLPEQVDIIISEPMGYMLFNERMLESYLHAKKYLKPSGNMFPTIGDVHLAPFTDEQLYMEQFTKANFRYQPSFHGVDLSALRGAAVDEYFRQPVVDTFDIRILMAKSVKYTVNFLEAKEGDLHRIEIPFKFHMLHSGLVHGLAFWFDVAFIGSIMTVWLSTAPTEPLTHWYQVRCLFQSPLFAKAGDTLSGTCLLIANKRQSYDISIVAQVDQTGSKSSNLLDLKNPFFRYTGTTPSPPPGSHYTSPSENMWNTGSTYNLSSGVAVAGMPTAYDLSSVIAGGSSVGHNNLIPLANTGIVNHTHSRMGSIMSTGIVQGSSGAQGGGGSSSAHYAVNNQFTMGGPAISMASPMSIPTNTMHYGS
notes: also called GST fusion protein of CARM1; glutathione S-transferase-CARM1; not shown: glutathione S-transferase (GST) as encoded by vector pGEX-4T1 (Pharmacia)

Key:
[1] = molecular target: T1, CARM1 fused to Gal4AD (pGAD10.CARM1) (mouse, UniProt Q4AE70 3-651 (rat entry)); assay: yeast two-hybrid, β-galactosidase activity
T1 construct: Yeast two-hybrid prey; also called CARM1-AD hybrid protein; CARM1(3-608)
T1 sequence: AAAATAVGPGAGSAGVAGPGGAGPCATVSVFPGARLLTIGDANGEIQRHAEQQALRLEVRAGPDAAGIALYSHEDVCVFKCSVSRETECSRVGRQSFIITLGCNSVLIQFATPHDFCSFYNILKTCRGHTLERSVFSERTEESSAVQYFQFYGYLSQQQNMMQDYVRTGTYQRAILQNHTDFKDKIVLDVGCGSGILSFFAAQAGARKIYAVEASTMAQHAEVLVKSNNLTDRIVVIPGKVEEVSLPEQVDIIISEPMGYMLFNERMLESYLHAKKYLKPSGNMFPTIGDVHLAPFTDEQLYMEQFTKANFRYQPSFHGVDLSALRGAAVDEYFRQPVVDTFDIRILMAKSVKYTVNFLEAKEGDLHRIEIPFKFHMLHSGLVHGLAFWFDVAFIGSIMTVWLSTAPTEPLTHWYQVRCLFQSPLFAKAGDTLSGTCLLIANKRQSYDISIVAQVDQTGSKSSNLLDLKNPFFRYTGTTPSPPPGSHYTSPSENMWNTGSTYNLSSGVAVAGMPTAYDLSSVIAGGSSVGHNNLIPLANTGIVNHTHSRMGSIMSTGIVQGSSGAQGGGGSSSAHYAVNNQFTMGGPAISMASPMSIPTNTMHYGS
Method: (§1) Sub-fragments of the GRIP1 C-terminal domain (GRIP lc), fused with the Gal4 DBD, were tested in the yeast two-hybrid system as described previously (Ding, X. F. et al. (1998) Mol. Endocrinol. 12:302) for binding to CARM1 or to α-actinin, fused to Gal4AD. β-galactosidase (β-gal) activity indicates interaction between the two hybrid proteins.

GST-CARM1 = molecular target: B3; assay: GST pull-down on glutathione agarose beads, labeled in vitro translated fragment, SDS-PAGE
Method: (§2) The binding of GRIP1c to CARM1 observed in the yeast two-hybrid system was confirmed in vitro, by incubating glutathione S-transferase (GST) fusion proteins attached to glutathione agarose beads with labeled proteins or protein fragments translated in vitro. […] Conversely, GST-GRIP1c bound CARM1 and the VLD to AAA mutant of CARM1 (FIG. 3B). GST-CARM1 not only bound GRIP1 but also the other two members of the p160 coactivator family, SRC-1a and ACTR (FIG. 3A). […] GST fusion proteins of CARM1 or the indicated GRIP1 fragments produced in E. coli strain BL21 (Stratagene), were bound to glutathione-agarose beads and incubated with labeled full length CARM1 or p160 coactivators or GRIP1 fragments translated in vitro from vector pSG5.HA-CARM1, pSG5.HA-GRIP1, pSG5.HA-SRC-1a (Chen, D. et al. 1999), or pCMX.ACTR (Chen et al. 1997); bound labeled proteins were eluted and analyzed by SDS polyacrylamide gel electrophoresis as described previously (Hong et al. 1996). A mutant form of CARM1 with the triple amino acid substitution (VLD changed to AAA) shown in FIG. 1 still retains the ability to bind to the C-terminal fragment of GRIP1.

[2] = molecular target: T2, GRIP1 amino acids 5-765, translated in vitro (UniProt Q61026 5-765); assay: as above
T2 construct: range 5-765; also called GRIP1 (5-765); not shown: translation start and HA tag encoded by pSG5.HA
Method: as §2

[3] = molecular target: T1, CARM1 fused to Gal4AD (pGAD10.CARM1); assay: yeast two-hybrid, β-galactosidase activity (figure legend)
Method: as §1

T2 sequence (Q61026 5-765): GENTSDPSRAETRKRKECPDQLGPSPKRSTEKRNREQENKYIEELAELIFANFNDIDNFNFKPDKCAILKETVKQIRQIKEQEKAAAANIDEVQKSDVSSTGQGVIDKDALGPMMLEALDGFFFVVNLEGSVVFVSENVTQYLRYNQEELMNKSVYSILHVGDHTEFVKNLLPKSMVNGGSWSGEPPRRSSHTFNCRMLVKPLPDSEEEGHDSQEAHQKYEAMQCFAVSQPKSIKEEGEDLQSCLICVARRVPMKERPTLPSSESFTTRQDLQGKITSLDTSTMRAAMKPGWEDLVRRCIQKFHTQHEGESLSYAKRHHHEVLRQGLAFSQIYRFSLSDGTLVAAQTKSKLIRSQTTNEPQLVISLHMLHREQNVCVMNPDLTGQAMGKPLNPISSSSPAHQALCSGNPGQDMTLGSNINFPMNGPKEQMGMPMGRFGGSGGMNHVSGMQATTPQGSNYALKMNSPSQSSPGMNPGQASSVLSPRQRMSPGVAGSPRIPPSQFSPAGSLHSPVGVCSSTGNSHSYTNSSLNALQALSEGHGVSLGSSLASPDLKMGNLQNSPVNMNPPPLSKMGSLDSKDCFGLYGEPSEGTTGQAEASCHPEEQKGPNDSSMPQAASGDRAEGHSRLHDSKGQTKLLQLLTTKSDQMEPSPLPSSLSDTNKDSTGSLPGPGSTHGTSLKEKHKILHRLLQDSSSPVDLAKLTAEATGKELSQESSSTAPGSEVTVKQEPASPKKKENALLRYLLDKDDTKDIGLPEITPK

B1: Gal4 DBD-GRIP1 1211-1462 (C-terminal fragment of GRIP1c bisected between 1210 and 1211) (other, UniProt P04386 1-147, looked up)
chain: MKLLSSIEQACDICRLKKLKCSKEKPKCAKCLKNNWECRYSPKTKRSPLTRAHLTEVESRLERLEQLFLLIFPREDLDMILKMDSLQDIKALLTGLFVQDNVNKDAVTDRLASVETDMPLTLRQHRISATSSSEESSNKGQRQLTVSSSVSNVNLTLRPGVPTQAPINAQMLAQRQREILNQHLRQRQMQQQVQQRTLMMRGQGLNVTPSMVAPAGLPAAMSNPRIPQANAQQFPFPPNYGISQQPDPGFTGATTPQSPLMSPRMAHTQSPMMQQSQANPAYQPTSDMNGWAQGSMGGNSMFSQQSPPHFGQQANTSMYSNNMNISVSMATNTGGLSSMNQMTGQMSMTSVTSVPTSGLPSMGPEQVNDPALRGGNLFPNQLPGMDMIKQEGDASRKYC
notes: also called the C-terminal fragment
B1: binds [1].

B2: GRIP1 amino acids 730-1121, translated in vitro (other, UniProt Q61026 730-1121, looked up)
chain: VKQEPASPKKKENALLRYLLDKDDTKDIGLPEITPKLERLDSKTDPASNTKLIAMKTVKEEVSFEPSDQPGSELDNLEEILDDLQNSQLPQLFPDTRPGAPTGSVDKQAIINDLMQLTADSSPVPPAGAQKAALRMSQSTFNNPRPGQLGRLLPNQNLPLDITLQSPTGAGPFPPIRNSSPYSVIPQPGMMGNQGMLGSQGNLGNNSTGMIGSSTSRPSMPSGEWAPQSPAVRVTCAATTGAMNRPVQGGMIRNPTASIPMRANSQPGQRQMLQSQVMNIGPSELEMNMGGPQYNQQQAPPNQTAPWPESILPIDQASFASQNRQPFGSSPDDLLCPHPAAESPSDEGALLDQLYLALRNFDGLEEIDRALGIPELVSQSQAVDAEQFSSQE
notes: range 730-1121; also called GRIP1 (730-1121); not shown: translation start and HA tag encoded by pSG5.HA
B2: no binding (GST-CARM1).

B3: no binding [2].

B4: Gal4 DBD-GRIP1 amino acids 1121-1210 (N-terminal fragment of GRIP1c bisected between 1210 and 1211) (other, UniProt P04386 1-147, looked up)
chain: MKLLSSIEQACDICRLKKLKCSKEKPKCAKCLKNNWECRYSPKTKRSPLTRAHLTEVESRLERLEQLFLLIFPREDLDMILKMDSLQDIKALLTGLFVQDNVNKDAVTDRLASVETDMPLTLRQHRISATSSSEESSNKGQRQLTVSESSIMLEQKPPVFPQQYASQAQMAQGGYNPMQDPNFHTMGQRPNYTTLRMQPRPGLRPTGIVQNQPNQLRLQLQHRLQAQQNRQPLMNQI
notes: also called the N-terminal fragment
B4: no binding [1].

B5: Gal4 DBD-GRIP1 fragment 1211-1350 (other, UniProt P04386 1-147, looked up)
chain: MKLLSSIEQACDICRLKKLKCSKEKPKCAKCLKNNWECRYSPKTKRSPLTRAHLTEVESRLERLEQLFLLIFPREDLDMILKMDSLQDIKALLTGLFVQDNVNKDAVTDRLASVETDMPLTLRQHRISATSSSEESSNKGQRQLTVSSSVSNVNLTLRPGVPTQAPINAQMLAQRQREILNQHLRQRQMQQQVQQRTLMMRGQGLNVTPSMVAPAGLPAAMSNPRIPQANAQQFPFPPNYGISQQPDPGFTGATTPQSPLMSPRMAHTQSPMMQQSQANPAYQPTSD
B5: binds [1].

B6: Gal4 DBD-GRIP1c (GRIP1 1122-1462) (other, UniProt P04386 1-147, looked up)
chain: MKLLSSIEQACDICRLKKLKCSKEKPKCAKCLKNNWECRYSPKTKRSPLTRAHLTEVESRLERLEQLFLLIFPREDLDMILKMDSLQDIKALLTGLFVQDNVNKDAVTDRLASVETDMPLTLRQHRISATSSSEESSNKGQRQLTVSSSIMLEQKPPVFPQQYASQAQMAQGGYNPMQDPNFHTMGQRPNYTTLRMQPRPGLRPTGIVQNQPNQLRLQLQHRLQAQQNRQPLMNQISSVSNVNLTLRPGVPTQAPINAQMLAQRQREILNQHLRQRQMQQQVQQRTLMMRGQGLNVTPSMVAPAGLPAAMSNPRIPQANAQQFPFPPNYGISQQPDPGFTGATTPQSPLMSPRMAHTQSPMMQQSQANPAYQPTSDMNGWAQGSMGGNSMFSQQSPPHFGQQANTSMYSNNMNISVSMATNTGGLSSMNQMTGQMSMTSVTSVPTSGLPSMGPEQVNDPALRGGNLFPNQLPGMDMIKQEGDASRKYC
notes: One entry covers both the yeast bait (pGBT9) and the mammalian vector (pM) fusion; also called pGBT9.GRIP1c; pM.GRIP1c
B6: binds [3].

B7: Gal4 DBD-GRIP1c N-terminal fragment ending at amino acid 1305 (GRIP1c bisected between 1305 and 1306) (other, UniProt P04386 1-147, looked up)
chain: MKLLSSIEQACDICRLKKLKCSKEKPKCAKCLKNNWECRYSPKTKRSPLTRAHLTEVESRLERLEQLFLLIFPREDLDMILKMDSLQDIKALLTGLFVQDNVNKDAVTDRLASVETDMPLTLRQHRISATSSSEESSNKGQRQLTVSSSIMLEQKPPVFPQQYASQAQMAQGGYNPMQDPNFHTMGQRPNYTTLRMQPRPGLRPTGIVQNQPNQLRLQLQHRLQAQQNRQPLMNQISSVSNVNLTLRPGVPTQAPINAQMLAQRQREILNQHLRQRQMQQQVQQRTLMMRGQGLNVTPSMVAPAGLPAAMSNPRIPQANAQQFPFPPNYGI
B7: no binding [1].

B8: Gal4 DBD-GRIP1c C-terminal fragment starting at amino acid 1306 (GRIP1c bisected between 1305 and 1306) (other, UniProt P04386 1-147, looked up)
chain: MKLLSSIEQACDICRLKKLKCSKEKPKCAKCLKNNWECRYSPKTKRSPLTRAHLTEVESRLERLEQLFLLIFPREDLDMILKMDSLQDIKALLTGLFVQDNVNKDAVTDRLASVETDMPLTLRQHRISATSSSEESSNKGQRQLTVSSQQPDPGFTGATTPQSPLMSPRMAHTQSPMMQQSQANPAYQPTSDMNGWAQGSMGGNSMFSQQSPPHFGQQANTSMYSNNMNISVSMATNTGGLSSMNQMTGQMSMTSVTSVPTSGLPSMGPEQVNDPALRGGNLFPNQLPGMDMIKQEGDASRKYC
B8: no binding [1].
